US20090215992A1 (published 2009)

Biological target: T1, mouse IL-1α (mouse, UniProt P01582 115-270)
T1 sequence (looked up): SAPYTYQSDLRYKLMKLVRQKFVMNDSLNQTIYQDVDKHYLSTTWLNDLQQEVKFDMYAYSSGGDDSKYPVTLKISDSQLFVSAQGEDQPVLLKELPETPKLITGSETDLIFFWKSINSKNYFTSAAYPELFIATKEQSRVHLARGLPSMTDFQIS
Assay: cell-based or functional assay

B1: mIL-1α/β DVD-Ig (bispecific antibody, mouse IgG2a, kappa)
heavy: EVQLQQSGPELVKPGTSVKMSCKTSGYTFTSYVMHWVKQKPGQGLEWIGYIIPYNDNTKYNEKFKGKATLTSDKSSSTAYMELSSLTSEDSAVYYCARRNEYYGSSFFDYWGQGTTLTVSSAKTTAPSVYPLAPQVILKESGPGILQPSQTLSLTCSFSGFSLSTYGTAVNWIRQPSGKGLEWLAQIGSDDRKLYNPFLKSRITLSEDTSNSQVFLKITSVDTEDSATYYCANGVMEYWGLGTSVTVSSAKTTAPSVYPLAPVCGDTTGSSVTLGCLVKGYFPEPVTLTWNSGSLSSGVHTFPAVLQSDLYTLSSSVTVTSSTWPSQSITCNVAHPASSTKVDKKIEPRGPTIKPCPPCKCPAPNLLGGPSVFIFPPKIKDVLMISLSPIVTCVVVDVSEDDPDVQISWFVNNVEVHTAQTQTHREDYNSTLRVVSALPIQHQDWMSGKEFKCKVNNKDLPAPIERTISKPKGSVRAPQVYVLPPPEEEMTKKQVTLTCMVTDFMPEDIYVEWTNNGKTELNYKNTEPVLDSDGSYFMYSKLRVEKKNWVERNSYSCSVVHEGLHNHHTTKSFSRTPGK
light: DIQMTQSPASLSASVGETVTITCRGSGILHNYLVWYQQKQGKSPQLLVYSAKILADGVPSRFSGSGSGTQYSLKINSLQPEDFGSYYCQHFWSTPFTFGSGTKLEIKRADAAPTVSIFPPSIVMTQTPKFLLVSAGDRVTITCKASQSVNHDVAWYQQMPGQSPKLLIYFASNRYTGVPDRFTGSGYGTDFTFTISTVQAEDLAVYFCQQDYSSPYTFGGGTKLEIKRADAAPTVSIFPPSSEQLTSGGASVVCFLNNFYPKDINVKWKIDGSERQNGVLNSWTDQDSKDSTYSMSSTLTLTKDEYERHNSYTCEATHKTSTSPIVKSFNRNEC
  fold decrease of potency against the parental anti-mIL-1α mAb: 10 fold
